From US20100184697A1 (U S OF AMERICA AS REPRESENTED BY THE SECRETAR, published 2010)
Square brackets hold non-standard residues; d marks the D form. Ends that are not written are not given here. rhodamine = not defined here; Nle = CCCC[C@H](N)C(=O)O

What was measured:
eGFP = target: T1, eGFP; experiment: FRET efficiency (1-D0/D1) by rhodamine photobleaching in living cells
T1 construct: Control, expressed inside living cells
Excerpt: (§1) An additional cysteine residue was positioned at the C-terminus of penetratin to facilitate labeling. Excitation of eGFP (donor) was facilitated using a 488-nm light source, and the emission spectrum was detected. In the absence of energy transfer between eGFP and rhodamine, excitation of eGFP would lead to an emission peak at 520-540 nm, whereas energy transfer from eGFP to an adjacent rhodamine fluorochrome acceptor would cause an emission in the 560-600 nm range. […] To confirm that FRET was occurring, acceptor photobleaching was performed with a 561 nm laser using an LSM 510 confocal microscope (Zeiss).
(§2) Excitation of eGFP was facilitated, and the emission spectrum detected, in accordance with the methods described in Example 6. FRET efficiency was calculated using equation 1-D0/D1, where D0 is fluorescence intensity of eGFP before rhodamine photobleaching and D1 is the intensity after rhodamine photobleaching.

[1] = target: T2, STAT3 tagged with eGFP on its N-terminus (UniProt P40763 1-770); experiment: as above
T2 construct: Stably expressed inside living HEK293 cells; also called eGFP-STAT3; not shown: eGFP (enhanced green fluorescent protein) tag
T2 sequence (P40763 whole entry): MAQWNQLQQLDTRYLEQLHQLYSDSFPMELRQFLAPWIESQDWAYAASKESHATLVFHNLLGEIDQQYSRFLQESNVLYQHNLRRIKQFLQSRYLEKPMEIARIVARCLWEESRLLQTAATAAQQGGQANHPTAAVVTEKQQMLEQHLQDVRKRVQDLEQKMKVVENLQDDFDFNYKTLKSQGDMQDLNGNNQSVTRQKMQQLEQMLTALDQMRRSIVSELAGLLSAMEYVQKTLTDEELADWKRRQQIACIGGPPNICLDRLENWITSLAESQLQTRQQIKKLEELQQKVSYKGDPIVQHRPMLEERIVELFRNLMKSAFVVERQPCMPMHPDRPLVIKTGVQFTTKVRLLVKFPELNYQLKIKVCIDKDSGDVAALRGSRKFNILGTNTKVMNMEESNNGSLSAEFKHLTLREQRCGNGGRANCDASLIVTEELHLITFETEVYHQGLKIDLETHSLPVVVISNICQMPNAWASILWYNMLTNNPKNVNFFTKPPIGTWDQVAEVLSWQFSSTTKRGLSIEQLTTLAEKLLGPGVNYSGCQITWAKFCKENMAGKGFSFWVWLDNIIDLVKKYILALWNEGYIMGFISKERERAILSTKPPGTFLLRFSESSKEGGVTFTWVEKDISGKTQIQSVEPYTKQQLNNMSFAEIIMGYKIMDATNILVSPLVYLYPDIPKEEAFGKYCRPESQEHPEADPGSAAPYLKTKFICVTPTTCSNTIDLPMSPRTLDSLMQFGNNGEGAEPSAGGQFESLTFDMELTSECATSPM
Excerpt: as §1, §2

eGFP-STAT1 [2] = target: T3, eGFP-STAT1 (UniProt P42224 1-750); experiment: as above
T3 construct: Expressed inside living cells; not shown: eGFP (enhanced green fluorescent protein) tag
T3 sequence (looked up): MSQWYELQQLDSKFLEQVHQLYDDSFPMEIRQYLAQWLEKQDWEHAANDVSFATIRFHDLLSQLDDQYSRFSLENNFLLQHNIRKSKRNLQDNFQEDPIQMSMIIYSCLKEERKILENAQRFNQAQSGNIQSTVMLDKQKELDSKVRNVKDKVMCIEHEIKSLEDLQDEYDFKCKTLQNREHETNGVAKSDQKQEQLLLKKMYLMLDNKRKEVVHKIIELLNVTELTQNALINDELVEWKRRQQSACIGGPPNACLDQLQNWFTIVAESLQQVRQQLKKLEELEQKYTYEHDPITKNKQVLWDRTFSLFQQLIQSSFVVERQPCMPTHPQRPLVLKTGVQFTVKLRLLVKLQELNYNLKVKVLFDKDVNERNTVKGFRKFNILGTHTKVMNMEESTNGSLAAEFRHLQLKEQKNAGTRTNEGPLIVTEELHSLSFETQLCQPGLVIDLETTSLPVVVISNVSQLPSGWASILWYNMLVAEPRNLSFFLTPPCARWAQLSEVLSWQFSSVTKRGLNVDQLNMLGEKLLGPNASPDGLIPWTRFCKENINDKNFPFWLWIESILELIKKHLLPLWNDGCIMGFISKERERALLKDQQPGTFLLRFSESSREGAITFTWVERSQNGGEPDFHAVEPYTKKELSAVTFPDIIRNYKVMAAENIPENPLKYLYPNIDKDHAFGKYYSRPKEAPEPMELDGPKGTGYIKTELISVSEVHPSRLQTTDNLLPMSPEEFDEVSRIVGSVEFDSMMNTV
Excerpt: as §1, §2

eGFP-STAT1 [3] = target: T3, eGFP-STAT1; experiment: FRET (eGFP donor, rhodamine acceptor, acceptor photobleaching) in living cells

B1: rhodamine-labeled STAT3-HEL2A-2 (peptide)
peptide: LDTRYLEQLHKLYRQIKIWFPNRR[Nle]KWKKC(rhodamine)
modifications: not fully specified; reading uncertain
notes: Synthetic peptide; also called STAT3-HEL2A-2 labeled with rhodamine
- FRET efficiency (eGFP): ~15.2%
- FRET efficiency [1]: 90.8%
- FRET efficiency (eGFP-STAT1 [2]): ~12.8%
- binding result (eGFP-STAT1 [3]): no binding
